The values below come from patent US11814435B2, “Therapeutic antibodies and their uses” (PFIZER INC., priority 2015, dated 2023).

In general, Kd refers to the constant that tells how readily two partners part at equilibrium. Lower therefore signals a tighter complex.

Numbering of substitutions follows the chain as printed.

B1: h25A8-C8_Ep (antibody, V domains shown)
VH: EVQLVESGGGLVKPGGSLRLSCAASGFTFNTYAMNWVRQAPGKGLEWVGRIRSKINNYATYYAESVKGRFTISRDDSKNTLYLQMNSLKTEDTAVYYCVRHETLRSGISWFASWGQGTLVTVSS
VL: QAVVTQEPSLTVSPGGTVTLTCRSSTGAVTTSNYANWVQQKPGQAPRGLIGGTNTRAPGTPARFSGSLLGGKAALTLSGAQPEDEAEYYCVLWYNNHWVFGGGTKLTVL
modifications: left off: another chain or arm of the molecule; a dimerising Fc or GST; small tags and cut ends
B2: h25A8-B5_Ep (antibody, V domains shown)
VH: B1 VH with N30S
VL: B1 VL with H97Y
modifications: left off: another chain or arm of the molecule; a dimerising Fc or GST; small tags and cut ends
B3: h25A8-B8_Ep (antibody, V domains shown)
VH: B1 VH with N30S
VL: B1 VL
modifications: left off: another chain or arm of the molecule; a dimerising Fc or GST; small tags and cut ends
B4: h25A8-B12_Ep: anti-EpCam/CD3 bispecific, human IgG2dA, anti-CD3 arm h25A8-B12 (antibody, V domains shown)
VH: B1 VH with N30S
VL: B1 VL with S24A
modifications: left off: another chain or arm of the molecule; a dimerising Fc or GST; small tags and cut ends
notes: anti-EpCam/CD3 bispecific, human IgG2dA, anti-CD3 arm h25A8-B12
B5: h25A8-B13_Ep: anti-EpCam/CD3 bispecific, human IgG2dA, anti-CD3 arm h25A8-B13 (antibody, V domains shown)
VH: B1 VH with N30S
VL: B1 VL with S24T
modifications: left off: another chain or arm of the molecule; a dimerising Fc or GST; small tags and cut ends
notes: anti-EpCam/CD3 bispecific, human IgG2dA, anti-CD3 arm h25A8-B13
B6: h2B4-yaesTK_Ep: anti-EpCam/CD3 bispecific, human IgG2dA, anti-CD3 arm h2B4-yaesTK (h2B4-VH-yaes VL_TK) (antibody, V domains shown)
VH: EVQLVESGGGLVQPGGSLRLSCAASGFTFSDYYMTWVRQAPGKGLEWVAFIRNRARGYTSDYAESVKGRFTISRDNAKNSLYLQMNSLRAEDTAVYYCARDRPSYYVLDYWGQGTTVTVSS
VL: DIVMTQSPDSLAVSLGERATINCKSSQSLFNVRSRKNYLAWYQQKPGQPPKLLISWASTRESGVPDRFSGSGSGTDFTLTISSLQAEDVAVYYCKQSYDLFTFGSGTKLEIK
modifications: left off: another chain or arm of the molecule; a dimerising Fc or GST; small tags and cut ends
B7: h2B4-hnpsTK_Ep: anti-EpCam/CD3 bispecific, human IgG2dA, anti-CD3 arm h2B4-hnpsTK (h2B4-VH-hnps VL_TK) (antibody, V domains shown)
VH: B6 VH with Y62H, A63N, E64P
VL: B6 VL
modifications: left off: another chain or arm of the molecule; a dimerising Fc or GST; small tags and cut ends
B8: h2B4-VH-wt VL_TK: anti-CD3 antibody (antibody, V domains shown)
VH: B6 VH with Y62H, A63N, E64A
VL: B6 VL
B9: h2B4-VH-yaps VL_TK: anti-CD3 antibody (antibody, V domains shown)
VH: B6 VH with E64P
VL: B6 VL
B10: h2B4-VH-hnps VL_TK: anti-CD3 antibody (antibody, V domains shown)
VH: B6 VH with Y62H, A63N, E64P
VL: B6 VL
B11: h2B4-VH-yaes VL_TK: anti-CD3 antibody (antibody, V domains shown)
VH: B6 VH
VL: B6 VL
B12: h2B4-VH-yads VL_TK: anti-CD3 antibody (antibody, V domains shown)
VH: B6 VH with E64D
VL: B6 VL

Chain of hCD3 (human CD3) (P07766 23-126 limits assumed): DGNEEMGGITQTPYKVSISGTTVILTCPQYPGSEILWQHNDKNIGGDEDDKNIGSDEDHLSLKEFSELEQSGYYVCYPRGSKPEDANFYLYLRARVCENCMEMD
Chain of hCD3 (human CD3) (P04234 22-105 partner limits assumed): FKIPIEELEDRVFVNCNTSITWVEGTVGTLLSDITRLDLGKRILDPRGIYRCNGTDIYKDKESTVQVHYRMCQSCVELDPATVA

In one experiment the target is CD3 (Homo sapiens, UniProt P07766). Description: Biacore kinetics of anti-CD3 hIgG2dA bispecifics at 37° C. Type of experiment: binding.
Chain of CD3 (P07766 23-126 limits assumed): as the sequence (P07766 23-126 limits assumed) above
Chain of CD3 (P04234 22-105 partner limits assumed): as the sequence (P04234 22-105 partner limits assumed) above
Details: not given
B1 displayed a Kd of 25.1 nM, a ka of 1.2e+06 M⁻¹ s⁻¹ and a kd of 0.0301 s⁻¹.
B2 returned a dissociation constant (Kd) of 45 nM, a ka of 1.29e+06 M⁻¹ s⁻¹ and a kd of 0.0581 s⁻¹.
In the case of B3, the affinity, expressed as Kd, was 18.7 nM; the ka was found to be 1.19e+06 M⁻¹ s⁻¹; the kd was found to be 0.0222 s⁻¹.
For the molecule B4, the Kd came to 21 nM, the ka was found to be 1.15e+06 M⁻¹ s⁻¹ and the kd came to 0.0241 s⁻¹.
The molecule B5 yielded a Kd of 18.3 nM, a ka of 1.2e+06 M⁻¹ s⁻¹ and a kd of 0.0219 s⁻¹.
B6: binding was characterised by a dissociation constant (Kd) of 54.4 nM, the ka stood at 474000 M⁻¹ s⁻¹ and the kd was found to be 0.0258 s⁻¹.
For B7, the Kd came out at 31.2 nM, the ka came out at 754000 M⁻¹ s⁻¹ and the kd came to 0.0235 s⁻¹.

The next experiment addresses hCD3 (human CD3) (Homo sapiens, UniProt P07766). Briefly: Kinetics and affinity of hCD3/human IgG interactions by SPR (Bio-Rad Proteon XPR36). Type of experiment: binding. As to conditions: 37° C. As for the experimental part:
All experiments were performed on a Bio-Rad Proteon XPR36 surface Plasmon resonance biosensor (Bio-Rad, Hercules, Calif.). An array of anti-CD3 antibodies was prepared using an amine-coupling method on a Bio-Rad GLC Sensor Chip similar to that described in Abdiche, et al., Anal. Biochem. 411, 139-151 (2011). The analysis temperature for the immobilization was 25° C. and the running buffer was HBS-T+(10 mM HEPES, 150 mM NaCl, 0.05% Tween-20, pH 7.4). Channels were activated in the analyte (horizontal) direction by injecting a mixture of 1 mM ECD and 0.25 mM NHS for 3 minutes at a flow rate of 30 μL/min. IgGs were immobilized on the activated spots by injecting them in the ligand (vertical) direction at 20 μg/mL in 10 mM Acetate pH 4.5 buffer for 1.5 minutes at […]. The activated surfaces were blocked by injecting 1M ethanolamine, pH 8.5 in the analyte direction for 3 minutes at 30 μL/min.
The analysis temperature for the hCD3 binding analysis was 37° C. or 25° C. in a running buffer of HBS-T+, supplemented with 1 mg/mL BSA. A kinetic titration method was employed for the interaction analysis as described in Abdiche, et al. The hCD3 (human CD3) analyte was injected in the analyte direction using a series of injections from low to high concentration. The concentrations used were 0.08 nM, 0.4 nM, 2 nM, 10 nM and 50 nM (a 5-membered series, with a 5-fold dilution factor and top concentration of 50 nM). The association time for a given analyte dilution was two minutes. Immediately after the 50 nM hCD3 injection, dissociation was monitored for 2 hours. Prior to the hCD3 analyte injections, buffer was injected 5 times using the same association and dissociation times at the hCD3 analyte cycles to prepare a buffer blank sensorgram for double-referencing purposes (double referencing as described in Myszka, J. Mol. Recognit. 12, 279-284 (1999).
The sensorgrams were double-referenced and fit to a 1:1 Langmuir with mass transport kinetic titration model in BIAevaluation Software version 4.1.1 (GE Lifesciences, Piscataway, N.J.).
Take B8: the “ka huCD3ed @37° C.” value stood at 380000 M⁻¹ s⁻¹ and the “kd huCD3ed @37° C.” value amounted to 0.014 s⁻¹.
In the case of B9, the “ka huCD3ed @37° C.” value was 250000 M⁻¹ s⁻¹ and the “kd huCD3ed @37° C.” value was 0.023 s⁻¹.
As to B10, the “ka huCD3ed @37° C.” value worked out at 390000 M⁻¹ s⁻¹ and the “kd huCD3ed @37° C.” value stood at 0.016 s⁻¹.
Turning to B11, the “ka huCD3ed @37° C.” value is 230000 M⁻¹ s⁻¹ and the “kd huCD3ed @37° C.” value is 0.023 s⁻¹.
In the case of B12, the “ka huCD3ed @37° C.” value was found to be 240000 M⁻¹ s⁻¹ and the “kd huCD3ed @37° C.” value was found to be 0.021 s⁻¹.
